Laboratory results from patent US10767162B2, “Methods for differentiation” (PRESIDENT AND FELLOWS OF HARVARD COLLEGE, priority 2014, dated 2020).

Tests used:
[1] = tested on: ES cell line that constitutively over-expressed the transcription factor MyoD; assay: Skeletal muscle differentiation efficiency of MyoD ES cells, myosin heavy chain (MHC) immunostaining; assay type: cell-based, mouse
Text: FIG. 2A depicts a differentiation time course of ES cells to skeletal muscle when exposed to low serum vs high serum conditions. […] LIF was removed at Day 0. Low serum was then initiated at different starting times beginning with Day 0. Cells were then fixed and immunostained for myosin heavy chain (MHC) expression. Differentiating cells in high serum were continuously split to prevent overgrowth. FIG. 2B depicts a comparison of differentiation efficiency generated by two types of defined media (N2B27) and 20% KOSR, low serum media (2% horse serum+insulin), and high serum media (15% FBS). Cells were removed from standard ES media (LIF and serum) and incubated in the specified media starting from Day 0 to Day 4. Continuation of LIF (1000 U/ml) or addition of Bmp4 (10 ng/ml) results in a strong block to muscle differentiation.
To probe the effect of the cell cycle on differentiation an ES cell line was used that constitutively over-expressed the transcription factor MyoD driven off an EF1alpha promoter (5) activated by tamoxifen-induced Cre recombination. […]
However any implication of growth factor effects through the manipulation of serum can be fraught with the inconsistencies and complexities of serum. […] Use of both media in ES cells led to activation of MyoD and terminal myogenesis similar to the 2% low serum media, with some improvement (FIG. 2B; assessed on Day 4). […]

[2] = tested on: iNIL ES cells (Ngn2, Isl1, Lhx3); assay: Spinal motor neuron differentiation of iNIL ES cells, beta-3 tubulin (Tubb3) expression; assay type: cell-based, mouse; conditions: added back into growth factor-free media
Text: FIGS. 11A-11B depict spinal motor neurons. […] FIG. 11B depicts a time course of gene expression for neuronal lineage factors and motor neuron terminal differentiation markers in growth factor-free (N2B27) media.
To generate spinal motor neurons, a mouse ES cell line that overexpressed a combination of three transcription factor lineage specifiers (Ngn2, Isl1, Lhx3) was used. This combination was previously shown to specify spinal motor neuron identity (4). These iNIL cells, as they are also called, upon doxycycline stimulation express the three transcription factors from a single open reading frame coupled by 2A peptides. Growth factor withdrawal was used as the method of cell cycle manipulation in the experiments described in this Example.
As expected from the results on skeletal muscle myotubes, neurons rapidly formed from ES cells upon switching to different types of growth factor-free media. […] Tubb3 expression was confirmed by immunostaining. When either of the ES cell growth factors LIF or Bmp4 were added back into growth factor-free media, there was a strong block on neuronal differentiation.
ESC differentiation. Twenty-four hours before starting, ESCs are trypsinized and spread out as monolayer onto gelatin in standard ES media. […]
(§1) RNA isolation and qPCR. […] Quantitative PCR was performed using Bio-rad's SYBR™ green Supermix. […]

[3] = tested on: Hnf4α-overexpressing ES cells; assay: Hepatoblast-like differentiation of Hnf4α-overexpressing ES cells, alphafetoprotein (AFP) expression; assay type: cell-based; conditions: added to growth factor-free media; day 4
Text: FIGS. 13A-13B depict hepatoblast-like cells. […] Alpha-fetoprotein mRNA expression after 4 days in media of different growth factor content. FIG. 13B depicts a time course of gene expression for hepatic lineage factors and hepatocyte markers in growth factor-free (N2B27) media.
One essential lineage specifying factor for hepatocytes is hepatic nuclear factor 4α (Hnf4α)(6). Switching of Hnf4α-overexpressing ES cells to growth factor-free or growth factor-reduced media led to the activation of a subset of hepatic genes. At day 0, LIF and doxycycline were removed and the media was either switched or kept to 15% FBS. By day 4, there were high levels of alphafetoprotein (AFP) that could be detected in the cells differentiated in the growth factor-free or growth factor-reduced media and less than 10% the level of AFP in cells in 15% FBS (FIG. 13A and FIG. 16). AFP expression could be confirmed by immunostaining. While this activation by growth factor withdrawal was similar to the pattern seen in previous cell types, there was an additional interesting point of variation compared to other lineages examined so far. […] Albumin production was also detected, as was Sox17, Pparα, Cdh3, Tbx3, Krt18, Hhex, Lrh1, C/EBPα, Hnf1a, and Hnf1b. […]
as §1

B1: Bmp4: ES cell growth factor, promotes Id protein family expression (protein, UniProt P21275 293-408, looked up)
Bone morphogenetic protein 4: SPKHHPQRSRKKNKNCRRHSLYVDFSDVGWNDWIVAPPGYQAFYCHGDCPFPLADHLNSTNHAIVQTLVNSVNSSIPKACCVPTELSAISMLYLDEYDKVVLKNYQEMVVEGCGCR
[1]; LIF 1000 U/ml or Bmp4 10 ng/ml added back to N2B27, Day 4
  MHC+ nuclei (differentiation) when added back to N2B27: 0%
[1]; continuation of LIF (1000 U/ml) or addition of Bmp4 (10 ng/ml), Day 0 to Day 4
  muscle differentiation: strong block
[2]
  neuronal differentiation: strong block
[3]
  AFP expression: did not reduce
